# B1: Azoarcus group I ribozyme (parent)
# chain: GUGCCUUGCGCCGGGAAACCACGCAAGGGAUGGUGUCAAAUUCGGCGAAACCUAAGCGCCCGCCCGGGCGUAUGGCAACGCCGAGCCAAGCUUCGGCGCCUGCGCCGAUGAAGGUGUAGAGACUAGACGGCACCCACCUAAGGCAAACGCUAUGGUGAAGGCAUAGUCCAGGGAGUGGCGAAAGUCACACAAACCGG
# Variants of: B1
# Assay: reverse-splicing fitness (ratio to wild type); higher = more active; in vitro selection; Mg2+ level not given
# Outline: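 An in vitro group I ribozyme library with randomized positions was T7-transcribed and gel-purified. In triplicate, 10 pmol RNA in EPPS pH 7.5 was reacted with 50 pmoles of a 30-nt RNA substrate for 1 h at 37 °C across several added MgCl2 levels (1–48 mM), then stopped with EDTA. Products were reverse transcribed from a substrate-complementary primer, PCR-amplified and sequenced (HiSeq 4000). Fitness is a variant's read proportion after selection over that before, normalised to wild type.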
row,Variant,reverse-splicing fitness
1,C82A A111U A145U C150U C169G U176C,0.0156
2,C82A A111U A145U C150U C169G U176G,0.00663
3,C82A A120C A145G C150U,0.107
4,C82A A120C A145G C150G,0.0213
5,C82A A120C A145G C150A,0.0245
6,C82A A120C A145G C150U C169G U176G,0.00573
7,C82A A120C A145G C150U C169G U176A,0.0144
8,C82A A120C A145G C150U C169G U176C,0.0202
9,C82A A111U A145U C150G,0.0256
10,C82A A111U A145U C150U,0.181
11,C82A A111U A145U C150A,0.0253
12,C82A A111U A145U C169G,0.00938
13,C82A A111U A145U C169U,0.0125
14,C82A A111U A145U C169A,0.00911
15,C82A A111U C150G U176A,0.00718
16,C82A A111U C150G U176G,0.00369
17,C82A A111U C150G U176C,0.015
18,C82A A111U A145U C150A C169A U176C,0.0138
19,C82A A111U A145U C150A C169A U176G,0.00765
20,C82A A111U A145U C150A C169A U176A,0.0158
21,C82A A111U A145U,0.289
22,C82A A111U C150U,0.135
23,C82A A111U C150G,0.0198
24,C82A A111U C150A,0.0266

row,Variant,reverse-splicing fitness
1,C82A A111U A145G C150G C169U U176C,0.0142
2,C82A A111U A145G C150G C169U U176A,0.0134
3,C82A A111U A145G C150G C169U U176G,0.00787
4,C82A A120C A145U C150G C169A U176G,0.00455
5,C82A A120C A145U C150G C169A U176C,0.0131
6,C82A A120C A145U C150G C169A U176A,0.0116
7,C82A A120C A145C C169U U176A,0.0135
8,C82A A120C A145C C169U U176G,0.00354
9,C82A A120C A145C C169U U176C,0.0127
10,C82A A111U C150A C169A U176C,0.0197
11,C82A A111U C150A C169A U176A,0.0188
12,C82A A111U C150A C169A U176G,0.00811
13,C82A A111U A145U C150U U176G,0.0184
14,C82A A111U A145U C150U U176C,0.0933
15,C82A A111U A145U C150U U176A,0.0636
16,C82A A111U A145U C150A C169U U176A,0.0147
17,C82A A111U A145U C150A C169U U176C,0.0127
18,C82A A111U A145U C150A C169U U176G,0.00771
19,C82A A111U A145G C150U U176C,0.115
20,C82A A111U A145G C150U U176G,0.0191
21,C82A A111U A145G C150U U176A,0.0694
22,C82A A120C A145G C169U U176A,0.0173
23,C82A A120C A145G C169U U176G,0.00469
24,C82A A120C A145G C169U U176C,0.0162

row,Variant,reverse-splicing fitness
1,C82A A111U A145U C150U C169G,0.00969
2,C82A A111U A145U C150U C169A,0.00985
3,C82A A111U A145U C150U C169U,0.0124
4,C82A A120C A145C C150U C169U U176C,0.00988
5,C82A A120C A145C C150U C169U U176G,0.00452
6,C82A A120C A145C C150U C169U U176A,0.0127
7,C82A A120C A145U C150G C169G U176C,0.00545
8,C82A A120C A145U C150G C169G U176G,0.00467
9,C82A A120C A145U C150G C169G U176A,0.00819
10,C82A A111U A145U C150G C169G,0.00819
11,C82A A111U A145U C150G C169A,0.00877
12,C82A A111U A145U C150G C169U,0.00971
13,C82A A111U A145G C150U C169U U176C,0.0148
14,C82A A111U A145G C150U C169U U176G,0.00683
15,C82A A111U A145G C150U C169U U176A,0.0147
16,C82A A111U C169U U176C,0.0132
17,C82A A111U C169U U176G,0.00671
18,C82A A111U C169U U176A,0.0152
19,C82A A111U A145U C150A C169G U176A,0.0157
20,C82A A111U A145U C150A C169G U176C,0.0188
21,C82A A111U A145U C150A C169G U176G,0.00712
22,C82A A120C A145G C150G C169A U176G,0.00933
23,C82A A120C A145G C150G C169A U176C,0.0128
24,C82A A120C A145G C150G C169A U176A,0.0141

row,Variant,reverse-splicing fitness
1,C82A A120C A145C U176A,0.0359
2,C82A A120C A145C U176G,0.00935
3,C82A A120C A145C U176C,0.0514
4,C82A A120C A145C C150A C169U U176G,0.00481
5,C82A A120C A145C C150A C169U U176C,0.0111
6,C82A A120C A145C C150A C169U U176A,0.0144
7,C82A A111U A145U C150A C169G,0.00786
8,C82A A111U A145U C150A C169U,0.0108
9,C82A A111U A145U C150A C169A,0.0092
10,C82A A120C A145C C150U U176G,0.00635
11,C82A A120C A145C C150U U176C,0.0227
12,C82A A120C A145C C150U U176A,0.0172
13,C82A A111U A145G C169U U176G,0.00628
14,C82A A111U A145G C169U U176A,0.0154
15,C82A A111U A145G C169U U176C,0.0157
16,C82A A120C A145G C150A C169A U176C,0.0248
17,C82A A120C A145G C150A C169A U176A,0.0224
18,C82A A120C A145G C150A C169A U176G,0.00876
19,C82A A120C A145U C150G C169U U176G,0.00519
20,C82A A120C A145U C150G C169U U176A,0.00709
21,C82A A120C A145U C150G C169U U176C,0.00999
22,C82A A120C A145G C150G C169U U176G,0.00779
23,C82A A120C A145G C150G C169U U176A,0.0135
24,C82A A120C A145G C150G C169U U176C,0.015

row,Variant,reverse-splicing fitness
1,C82A A120C A145G C150U C169A U176A,0.0169
2,C82A A120C A145G C150U C169A U176C,0.0184
3,C82A A120C A145G C150U C169A U176G,0.00774
4,C82A A111U A145G C150U,0.222
5,C82A A111U A145G C150G,0.0263
6,C82A A111U U176G,0.026
7,C82A A111U U176A,0.0911
8,C82A A111U U176C,0.158
9,C82A A120C A145C C150G C169G U176C,0.00971
10,C82A A120C A145C C150G C169G U176A,0.00969
11,C82A A120C A145C C150G C169G U176G,0.00575
12,C82A A111U C150U U176A,0.0473
13,C82A A111U C150U U176G,0.0161
14,C82A A111U C150U U176C,0.0751
15,C82A A120C A145G C150U C169U U176A,0.0157
16,C82A A120C A145G C150U C169U U176C,0.0136
17,C82A A120C A145G C150U C169U U176G,0.00621
18,C82A A111U A145U C150G C169U U176G,0.00727
19,C82A A111U A145U C150G C169U U176C,0.0122
20,C82A A111U A145U C150G C169U U176A,0.00775
21,C82A A111U A145U C150U C169U U176A,0.0147
22,C82A A111U A145U C150U C169U U176C,0.0143
23,C82A A111U A145U C150U C169U U176G,0.00717
24,C82A A111U A145G C150G C169G U176G,0.00649

row,Variant,reverse-splicing fitness
1,C82A A111U A145G C150G C169G U176C,0.0133
2,C82A A111U A145G C150G C169G U176A,0.0117
3,C82A A111U A145U C150G C169A U176C,0.0109
4,C82A A111U A145U C150G C169A U176A,0.0106
5,C82A A111U A145U C150G C169A U176G,0.00651
6,C82A A120C,0.144
7,C82A A111U C150A C169U U176A,0.0167
8,C82A A111U C150A C169U U176G,0.00835
9,C82A A111U C150A C169U U176C,0.0171
10,C82A A120C A145U C150A C169G,0.00904
11,C82A A120C A145U C150A C169A,0.0105
12,C82A A120C A145U C150A C169U,0.00955
13,C82A A120C A145C C150G C169G,0.00784
14,C82A A120C A145C C150G C169U,0.00982
15,C82A A120C A145C C150G C169A,0.00891
16,C82A A111U C150U C169A,0.0102
17,C82A A111U C150U C169U,0.0124
18,C82A A111U C150U C169G,0.0102
19,C82A A120C A145G C169A,0.00985
20,C82A A120C A145G C169U,0.0214
21,C82A A120C A145G C169G,0.0102
22,C82A A111U A145U C150A U176C,0.0251
23,C82A A111U A145U C150A U176A,0.018
24,C82A A111U A145U C150A U176G,0.00989

row,Variant,reverse-splicing fitness
1,C82A A111U C150A U176G,0.00995
2,C82A A111U C150A U176C,0.0292
3,C82A A111U C150A U176A,0.0197
4,C82A A120C A145G C169A U176G,0.00473
5,C82A A120C A145G C169A U176C,0.034
6,C82A A120C A145G C169A U176A,0.0242
7,C82A A111U C150U C169U U176G,0.00671
8,C82A A111U C150U C169U U176C,0.0146
9,C82A A111U C150U C169U U176A,0.0146
10,C82A A111U A145G C150U C169G U176C,0.0194
11,C82A A111U A145G C150U C169G U176G,0.00676
12,C82A A111U A145G C150U C169G U176A,0.0134
13,C82A A120C A145C C150A C169A,0.00995
14,C82A A120C A145C C150A C169U,0.00877
15,C82A A120C A145C C150A C169G,0.0078
16,C82A A120C A145U C150G,0.0161
17,C82A A120C A145U C150A,0.0195
18,C82A A111U A145U C169U U176A,0.0142
19,C82A A111U A145U C169U U176C,0.0139
20,C82A A111U A145U C169U U176G,0.00541
21,C82A A120C A145U C150G C169A,0.0101
22,C82A A120C A145U C150G C169U,0.0114
23,C82A A120C A145U C150G C169G,0.00692

# From the RNAGym collection of RNA variant scans (doi:10.1093/molbev/msab373)
